A short description of data set [1]: Thermofluor thermal stability assay (Tm of MGLL protein). Type of data set: physicochemical. The settings on record: for Tm (midpoint of the melting transition): 0.05 mg/ml protein, 50 mM Pipes pH 7, 200 mM NaCl, 100 μM 1,8-ANS, 0.001% Tween.
Source text: (§1) Thermofluor® assays detect small changes in the intrinsic melting temperature of proteins based on binding of ligands. Compounds that interact preferentially with the native form of the protein will increase the Tm, the temperature at which half of the protein is unfolded (Pantoliano et al. 2001). The technique monitors changes in the fluorescent intensity of dyes such as 1-anilinonaphthalene-8-sulfonic acid (1,8-ANS). The fluorescent dyes are quenched in aqueous environments but increase in fluorescence on binding to the hydrophobic core of denatured proteins.
as §1, with “The Thermofluor®” for “Thermofluor®”, “assay is a powerful tool to screen for small molecule inhibitors interacting with a protein's active site or allosteric site. The assay detects” for “assays detect”
Thermofluor® assays were conducted to characterize wt-MGLL (hMGLL 1-303) (SEQ ID NO: 3) and mut-MGLL (hMGLL 1-303 L169S, L176S) and evaluate if the MGLL mutants could be used for high-throughput screening using Thermofluor®. Three microliters of protein at a concentration of 0.05 mg/ml in 50 mM Pipes pH 7, 200 mM NaCl, 100 μM 1,8-ANS, and 0.001% Tween was added to pre-dispensed compound plates. Wells were overlaid with silicone oil (1 μL, Fluka, type DC 200) to prevent evaporation. Final compound concentrations varied from 150 to 0.15 μM. Assay plates were heated at a rate of 1° C./min for all experiments over a temperature range sufficient to measure protein unfolding. Fluorescence was measured by continuous illumination with UV light (Hamamatsu LC6) supplied via fiber optic and filtered through a custom band-pass filter (380-400 nm; >60D cutoff). Fluorescence emission was detected by measuring light intensity using a CCD camera (Sensys, Roper Scientific) filtered to detect emission at 500±25 nm, resulting in simultaneous and independent readings of all 384 wells. One or more images were collected at each temperature, and the sum of the pixel intensity in a given area of the assay plate was recorded vs temperature, and fit to standard equations to yield the Tm.

Data set [2] deals with MGLL. The data set can be described thus: Kinetic analysis: hydrolysis of 4-methylcoumarin butyrate (4MC-B) by MGLL constructs. Type of data set: biochemical, human. The settings on record: substrate 4MC-B; 4-5 nM MGLL, 20 mM Pipes pH 7, 150 mM NaCl, 37° C.; average of 2 or 4 separate assays.
Protocol: The Michaelis-Menten parameters for the hydrolysis of 4-methylcoumarin butyrate (4MC-B) and coumarin arachidonate (C-A) substrate were determined using 4-5 nM of MGLL in 20 mM Pipes pH 7 and 150 mM NaCl at 37° C. […] The hyperbolic rates versus substrate concentration curves for the hydrolysis of 4MC-B were fit to the Michaelis-Menten equation using Excel.
The target in data set [3] is T1, MGLL (Homo sapiens, UniProt Q99685, L169S/L176S).
T1 construct: His tag followed by a TEV cleavage site (N); made in house; host or cells: Sf9 insect cells (baculovirus)
T1 sequence (Q99685 with tags, fused parts or gaps L169S/L176S): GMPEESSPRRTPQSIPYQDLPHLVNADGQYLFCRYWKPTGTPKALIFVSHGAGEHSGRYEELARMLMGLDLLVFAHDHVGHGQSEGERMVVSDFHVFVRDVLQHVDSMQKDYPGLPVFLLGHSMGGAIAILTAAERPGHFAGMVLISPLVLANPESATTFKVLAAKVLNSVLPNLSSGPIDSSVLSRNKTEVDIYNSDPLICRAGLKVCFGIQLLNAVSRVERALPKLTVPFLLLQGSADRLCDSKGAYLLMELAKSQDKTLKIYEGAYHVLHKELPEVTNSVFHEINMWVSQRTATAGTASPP
The data set can be described thus: Kinetic analysis: hydrolysis of coumarin arachidonate (C-A) by MGLL constructs. It is filed as biochemical. The settings on record: substrate C-A. An excerpt: A small fluorescent substrate, 4-methyl coumarin butyrate (4MC-B) was used to compare the activity of the engineered mutants to the activity of wt-MGLL (hMGLL 1-303) (SEQ ID NO: 3). The catalytic efficiency (kcat/KM) for the hydrolysis of the 4MC-B was similar for wt-MGLL (hMGLL 1-303) (SEQ ID NO: 3) and all MGLL mutants tested (Table 2). A larger more aliphatic fluorescent substrate, Coumarin Arachidonate (C-A), structurally more closely related to the MGLL natural substrate, 2-AG, was used to compare the activity of wt-MGLL (hMGLL 1-303) (SEQ ID NO: 3) to TEV cleaved mut-MGLL (hMGLL 1-303 L169S, L176S) (SEQ ID NO: 5).
The Michaelis-Menten parameters for the hydrolysis of 4-methylcoumarin butyrate (4MC-B) and coumarin arachidonate (C-A) substrate were determined using 4-5 nM of MGLL in 20 mM Pipes pH 7 and 150 mM NaCl at 37° C. The change in fluorescence due to substrate hydrolysis was monitored using excitation/emission wavelengths of 335/440 in a Safire II instrument from Tecan. The hyperbolic rates versus substrate concentration curves for the hydrolysis of 4MC-B were fit to the Michaelis-Menten equation using Excel.
The apparent kcat/KM ratio for the hydrolysis of C-A was determined at [S]<<KM. […] The kcat/KM values reported are the average from independent values determined from five substrate concentrations ranging from 700 to 40 nM.

The nature of data set [4]: Size exclusion chromatography of protein purified in the absence of detergent (aggregation / monomer). It is filed as physicochemical. As to the method:
A pilot purification of wt-MGLL (hMGLL 1-303) (SEQ ID NO: 3), performed in the complete absence of detergent, generated no protein (data not shown). A second purification of wt-MGLL (hMGLL 1-303) (SEQ ID NO: 3) was done with detergent in the lysis buffer only. Frozen cell pellets for wt-MGLL (hMGLL 1-303) (SEQ ID NO: 3) were thawed, resuspended, and lysed in Bugbuster® lysis buffer for 1 hour at 4° C. Bugbuster® lysis buffer is a proprietary lysis buffer from […] that contains detergent. The lysate was clarified by centrifugation at 40,000×g for 1 hr. No detergent was added at this point or during the rest of the purification. From this point forward, the purification protocol and buffers were the same as described below for mut-MGLL. An average of 2.2 mg of wt-MGLL (hMGLL 1-303) (SEQ ID NO: 3) per liter of cell culture was obtained.
Mutant MGLL (mut-MGLL) constructs were purified in the absence of detergent. […] Fractions were analysed by SDS-PAGE. […] Purification yields were determined by Bradford assay using the protein assay kit from BioRad according to manufacturer's instruction with BSA as a standard (Bradford 1976).

The source of these data is patent publication US8080400B2, “Crystal structure of monoacylglycerol lipase (MGLL)” (Janssen Pharmaceutica N.V., priority 2009, dated 2011).

B1: wt-MGLL.1-303: wild-type human MGLL isoform 2, amino acids 1-303, with N-terminal His tag and TEV site (SEQ ID NO: 3) (protein)
chain: MVDHHHHHHENLYFQGMPEESSPRRTPQSIPYQDLPHLVNADGQYLFCRYWKPTGTPKALIFVSHGAGEHSGRYEELARMLMGLDLLVFAHDHVGHGQSEGERMVVSDFHVFVRDVLQHVDSMQKDYPGLPVFLLGHSMGGAIAILTAAERPGHFAGMVLISPLVLANPESATTFKVLAAKVLNLVLPNLSLGPIDSSVLSRNKTEVDIYNSDPLICRAGLKVCFGIQLLNAVSRVERALPKLTVPFLLLQGSADRLCDSKGAYLLMELAKSQDKTLKIYEGAYHVLHKELPEVTNSVFHEINMWVSQRTATAGTASPP
modifications: N-terminal His tag and TEV site
As for B1, in data set [1], the “quality of the Thermofluor melting transition” value is “very poor transition” and the “Tm (midpoint of the melting transition)” value was 58 °C.

B2: mut-MGLL. 1-303, L169S, L176S, K160A: engineered human MGLL 1-303 with L169S, L176S and surface mutation K160A (protein)
chain: MVDHHHHHHENLYFQGMPEESSPRRTPQSIPYQDLPHLVNADGQYLFCRYWKPTGTPKALIFVSHGAGEHSGRYEELARMLMGLDLLVFAHDHVGHGQSEGERMVVSDFHVFVRDVLQHVDSMQKDYPGLPVFLLGHSMGGAIAILTAAERPGHFAGMVLISPLVLANPESATTFAVLAAKVLNSVLPNLSSGPIDSSVLSRNKTEVDIYNSDPLICRAGLKVCFGIQLLNAVSRVERALPKLTVPFLLLQGSADRLCDSKGAYLLMELAKSQDKTLKIYEGAYHVLHKELPEVTNSVFHEINMWVSQRTATAGTASPP
As for B2, the Km in data set [2] came out at 90 µM.

B3: mut-MGLL. 1-303, L169S, L176S, K165A: engineered human MGLL 1-303 with L169S, L176S and surface mutation K165A (protein)
chain: MVDHHHHHHENLYFQGMPEESSPRRTPQSIPYQDLPHLVNADGQYLFCRYWKPTGTPKALIFVSHGAGEHSGRYEELARMLMGLDLLVFAHDHVGHGQSEGERMVVSDFHVFVRDVLQHVDSMQKDYPGLPVFLLGHSMGGAIAILTAAERPGHFAGMVLISPLVLANPESATTFKVLAAAVLNSVLPNLSSGPIDSSVLSRNKTEVDIYNSDPLICRAGLKVCFGIQLLNAVSRVERALPKLTVPFLLLQGSADRLCDSKGAYLLMELAKSQDKTLKIYEGAYHVLHKELPEVTNSVFHEINMWVSQRTATAGTASPP
B3: the Km in data set [2] came out at 137 µM.

B4: mut-MGLL 1-303, L169S, L176S, K36A, K226A: engineered human MGLL 1-303 with L169S, L176S and surface mutations K36A, K226A (protein)
chain: MVDHHHHHHENLYFQGMPEESSPRRTPQSIPYQDLPHLVNADGQYLFCRYWAPTGTPKALIFVSHGAGEHSGRYEELARMLMGLDLLVFAHDHVGHGQSEGERMVVSDFHVFVRDVLQHVDSMQKDYPGLPVFLLGHSMGGAIAILTAAERPGHFAGMVLISPLVLANPESATTFKVLAAKVLNSVLPNLSSGPIDSSVLSRNKTEVDIYNSDPLICRAGLKVCFGIQLLNAVSRVERALPALTVPFLLLQGSADRLCDSKGAYLLMELAKSQDKTLKIYEGAYHVLHKELPEVTNSVFHEINMWVSQRTATAGTASPP
For B4, the Km in data set [2] was 123 µM.

B5: mut-MGLL 1-303, L169S, L176S, K226A: engineered human MGLL 1-303 with L169S, L176S and surface mutation K226A (protein)
chain: MVDHHHHHHENLYFQGMPEESSPRRTPQSIPYQDLPHLVNADGQYLFCRYWKPTGTPKALIFVSHGAGEHSGRYEELARMLMGLDLLVFAHDHVGHGQSEGERMVVSDFHVFVRDVLQHVDSMQKDYPGLPVFLLGHSMGGAIAILTAAERPGHFAGMVLISPLVLANPESATTFKVLAAKVLNSVLPNLSSGPIDSSVLSRNKTEVDIYNSDPLICRAGLKVCFGIQLLNAVSRVERALPALTVPFLLLQGSADRLCDSKGAYLLMELAKSQDKTLKIYEGAYHVLHKELPEVTNSVFHEINMWVSQRTATAGTASPP
With B5, in data set [2], the Km is 110 µM.

B6: mut-MGLL. 1-303, L169S, L176S: engineered human MGLL 1-303 with cap-domain mutations L169S, L176S; SEQ ID NO: 5 after TEV cleavage (protein)
chain: GMPEESSPRRTPQSIPYQDLPHLVNADGQYLFCRYWKPTGTPKALIFVSHGAGEHSGRYEELARMLMGLDLLVFAHDHVGHGQSEGERMVVSDFHVFVRDVLQHVDSMQKDYPGLPVFLLGHSMGGAIAILTAAERPGHFAGMVLISPLVLANPESATTFKVLAAKVLNSVLPNLSSGPIDSSVLSRNKTEVDIYNSDPLICRAGLKVCFGIQLLNAVSRVERALPKLTVPFLLLQGSADRLCDSKGAYLLMELAKSQDKTLKIYEGAYHVLHKELPEVTNSVFHEINMWVSQRTATAGTASPP
Regarding B6, the “catalytic efficiency for hydrolysis of C-A compared with wt-MGLL” value in data set [3] is on record as “equivalent”. In addition, in data set [1], the “quality of the Thermofluor melting transition” value is listed as “strong transition” and the “Tm (midpoint of the melting transition)” value was determined as 56.7 °C. The monomer in data set [4] was found to be 90%.
